Experimental data from patent publication US7977317B2, “Compositions and methods for modulating blood-brain barrier transport” (Raptor Pharmaceutical Inc., priority 2001, dated 2011).
Where two headings read alike, the source gives them in different places.

B1: p97: recombinant human melanotransferrin (p97), provided by Synapse Technologies (protein, UniProt P08582 20-709, looked up)
Melanotransferrin: GMEVRWCATSDPEQHKCGNMSEAFREAGIQPSLLCVRGTSADHCVQLIAAQEADAITLDGGAIYEAGKEHGLKPVVGEVYDQEVGTSYYAVAVVRRSSHVTIDTLKGVKSCHTGINRTVGWNVPVGYLVESGRLSVMGCDVLKAVSDYFGGSCVPGAGETSYSESLCRLCRGDSSGEGVCDKSPLERYYDYSGAFRCLAEGAGDVAFVKHSTVLENTDGKTLPSWGQALLSQDFELLCRDGSRADVTEWRQCHLARVPAHAVVVRADTDGGLIFRLLNEGQRLFSHEGSSFQMFSSEAYGQKDLLFKDSTSELVPIATQTYEAWLGHEYLHAMKGLLCDPNRLPPYLRWCVLSTPEIQKCGDMAVAFRRQRLKPEIQCVSAKSPQHCMERIQAEQVDAVTLSGEDIYTAGKTYGLVPAAGEHYAPEDSSNSYYVVAVVRRDSSHAFTLDELRGKRSCHAGFGSPAGWDVPVGALIQRGFIRPKDCDVLTAVSEFFNASCVPVNNPKNYPSSLCALCVGDEQGRNKCVGNSQERYYGYRGAFRCLVENAGDVAFVRHTTVFDNTNGHNSEPWAAELRSEDYELLCPNGARAEVSQFAACNLAQIPPHAVMVRPDTNIFTVYGLLDKAQDLFGDDHNKNGFKMFDSSNYHGQDLLFKDATVRAVPVGEKTTYRGWLGLDYVAALEGMSSQQC
B2: lactoferrin: lactoferrin (Lf), LRP ligand used as competitor (protein, UniProt P02788 20-710, looked up)
Lactotransferrin: GRRRSVQWCAVSQPEATKCFQWQRNMRKVRGPPVSCIKRDSPIQCIQAIAENRADAVTLDGGFIYEAGLAPYKLRPVAAEVYGTERQPRTHYYAVAVVKKGGSFQLNELQGLKSCHTGLRRTAGWNVPIGTLRPFLNWTGPPEPIEAAVARFFSASCVPGADKGQFPNLCRLCAGTGENKCAFSSQEPYFSYSGAFKCLRDGAGDVAFIRESTVFEDLSDEAERDEYELLCPDNTRKPVDKFKDCHLARVPSHAVVARSVNGKEDAIWNLLRQAQEKFGKDKSPKFQLFGSPSGQKDLLFKDSAIGFSRVPPRIDSGLYLGSGYFTAIQNLRKSEEEVAARRARVVWCAVGEQELRKCNQWSGLSEGSVTCSSASTTEDCIALVLKGEADAMSLDGGYVYTAGKCGLVPVLAENYKSQQSSDPDPNCVDRPVEGYLAVAVVRRSDTSLTWNSVKGKKSCHTAVDRTAGWNIPMGLLFNQTGSCKFDEYFSQSCAPGSDPRSNLCALCIGDEQGENKCVPNSNERYYGYTGAFRCLAENAGDVAFVKDVTVLQNTDGNNNEAWAKDLKLADFALLCLDGKRKPVTEARSCHLAMAPNHAVVSRMDKVERLKQVLLHQQAKFGRNGSDCPDKFCLFQSETKNLLFNDNTECLARLHGKTTYEKYLGPQYVAGITNLKKCSTSPLLEACEFLRK

Legend:
Cubilin = experiment: RT-PCR after p97 treatment in U-87 cells: Cubilin; format: cell-based, human; conditions: 72 hours, RT-PCR (FIG. 35)
Description: FIG. 35. Effect of p97 and RAP treatments in U-87 cells (RT-PCR). Cells (2×10^5) were plated onto six-multiwell microplates and grown at 37° C. under 5% CO2 with optimal culture medium supplemented with serum for 4 days. Treatment was performed in serum free medium for 72 hours. RNA isolation and RT-PCR were performed as described in the Examples. The amplified PCR products were electrophoresed on a 2% agarose gel and visualized under ultraviolet light. (n=2 for p97), (n=1 for RAP)
FIG. 38. Effect of p97 and RAP treatments in U-87 cells on expression of cubulin (A), P97 (B) and Megalin (C). The amplified PCR products were electrophoresed on a 2% agarose gel and visualized under ultraviolet light. (n=1). Quantification was by densitometry of p97 and RAP treatments on the RNA levels of LRP1B, LRP, LDL-R, cubilin, endogenous p97 and megalin. Results are expressed as ratios of RNA levels between control and treated U-87 cells.
RNA extraction. Cells in six-wells plate or in 75 cm^2 plastic tissue culture flasks were grown at 37° C. under 5% CO2 with optimal culture medium to 80-90% confluence. Total cellular RNA was preserved in Trizol (Gibco BRL, Burlington, ON). The solution are frozen at −80° C. until extraction. The solution was defroze and mixed with 5:1 chloroform for 3 minutes at room temperature. The suspension was centrifugated at 12000 g at 4° C. […]

[1] = test system: astrocytes and astrocytoma cells; experiment: Uptake of [125I]-p97 in rat astrocytes and astrocytoma cells; format: cell-based; conditions: 50 nM p97, 2 h at 37° C. (FIG. 24)
Description: FIG. 24. Uptake of p97 in rat astrocytes and astrocytoma cells. Cells were grown in monolayer in six-multiwell microplates at 37° C. under 5% CO2. Uptake of [^125I]-p97 was measured at 37° C. for 2 h in astrocytes and astrocytomas. The incubation medium contained [^125I]-p97 and a final concentration of 50 nM p97 in Ringer/Hepes solution. After incubation, the cell monolayer was washed three times with cold Ringer/Hepes solution. Triton X-100 0.1% was added and the [^125I]-p97 uptake was assessed in the Triton X-100 soluble fraction by TCA precipitation. Results represent means±SD (n=3, Astro; n=6, CTX and RG2; n=9, C6).
Uptake of [^125I]-p97. Cells were grown in monolayer in six-multiwell microplates at 37° C. under 5% CO2. Uptake of [^125I]-p97 was measured at 37° C. for 2 h in astrocytes and astrocytomas. The incubation medium contained [^125I]-p97 and a final concentration of 50 nM P97 in Ringer/Hepes solution. The uptake of [^125I]-p97 was performed in presence or in absence of 5 μM cold-P97. After incubation, the cell monolayer was wash three times with cold Ringer/Hepes solution. Triton X-100 0.1% was added and the [^125I]-p97 uptake was assessed in the Triton X-100 soluble fraction by TCA precipitation.

BBCE = experiment: Transcellular co-localization of p97 with clathrin in BBCE; format: cell-based, bovine; conditions: clathrin versus caveolin
Text: FIG. 21 depicts the transcellular co-localization of p97 and clathrin turning transcytosis.
Transcellular localization of p97 and clathrin was examined in BBCE as the p97 moved from the luminal to abluminal side of the BBB model (FIG. 21). The data are indicative of a co-migration of p97 and clathrin. As a control for the effect of the Alexa label, the behavior of p97 and p97-alexa were compared. (data not shown).

[2] = test system: bovine brain capillary endothelial cell monolayers; experiment: Competition of [125I]-p97 binding on bovine brain capillary endothelial cell monolayers; conditions: [125I]-p97 25 nM, 2 h at 4° C., competitor 7.5 micromolar (FIG. 3)
Description: FIG. 3. Binding of p97 on bovine brain capillary endothelial cell monolayers. Binding p97 was performed with BBCECs that were pre-incubated 2 hrs in Ringer-Hepes to avoid any interference from the astrocytes. For the binding experiments, cells were incubated for 2 h at 4° C. in Ringer/Hepes in the presence of [^125I]-p97 (25 nM) and 7.5 micromolar concentrations of cold-p97, transferrin or lactoferrin, respectively. At the end of the incubation, the filters were gently washed at 4° C. three times with 4 ml of cold-PBS. Then the associated radioactivity of endothelial cells was determined by removing the membrane of the culture insert and counting it in a gamma counter.
B. Binding studies of p97. Binding of p97 was performed with BBCECs and Rat Brain Endothelial Cells that were pre-incubated 2 hrs in Ringer/Hepes to avoid any interference from the astrocytes.
For the binding experiments, cells were incubated for 2 h at 4° C. in Ringer/Hepes in the presence of [^125I]-p97 (25 nM) and increasing concentrations of cold-p97 or high (7.5 micromolar) concentrations of transferrin or lactoferrin. At the end of the incubation, the filters were gently washed at 4° C. three times with 4 ml of cold-PBS. Then the associated radioactivity of endothelial cells was determined by removing the membrane of the culture insert and counting it in a gamma counter.

LRP = LRP (Homo sapiens, UniProt Q07954); conditions: Tables 1-3; cited from earlier work
Chain of LRP (Q07954 20-4544): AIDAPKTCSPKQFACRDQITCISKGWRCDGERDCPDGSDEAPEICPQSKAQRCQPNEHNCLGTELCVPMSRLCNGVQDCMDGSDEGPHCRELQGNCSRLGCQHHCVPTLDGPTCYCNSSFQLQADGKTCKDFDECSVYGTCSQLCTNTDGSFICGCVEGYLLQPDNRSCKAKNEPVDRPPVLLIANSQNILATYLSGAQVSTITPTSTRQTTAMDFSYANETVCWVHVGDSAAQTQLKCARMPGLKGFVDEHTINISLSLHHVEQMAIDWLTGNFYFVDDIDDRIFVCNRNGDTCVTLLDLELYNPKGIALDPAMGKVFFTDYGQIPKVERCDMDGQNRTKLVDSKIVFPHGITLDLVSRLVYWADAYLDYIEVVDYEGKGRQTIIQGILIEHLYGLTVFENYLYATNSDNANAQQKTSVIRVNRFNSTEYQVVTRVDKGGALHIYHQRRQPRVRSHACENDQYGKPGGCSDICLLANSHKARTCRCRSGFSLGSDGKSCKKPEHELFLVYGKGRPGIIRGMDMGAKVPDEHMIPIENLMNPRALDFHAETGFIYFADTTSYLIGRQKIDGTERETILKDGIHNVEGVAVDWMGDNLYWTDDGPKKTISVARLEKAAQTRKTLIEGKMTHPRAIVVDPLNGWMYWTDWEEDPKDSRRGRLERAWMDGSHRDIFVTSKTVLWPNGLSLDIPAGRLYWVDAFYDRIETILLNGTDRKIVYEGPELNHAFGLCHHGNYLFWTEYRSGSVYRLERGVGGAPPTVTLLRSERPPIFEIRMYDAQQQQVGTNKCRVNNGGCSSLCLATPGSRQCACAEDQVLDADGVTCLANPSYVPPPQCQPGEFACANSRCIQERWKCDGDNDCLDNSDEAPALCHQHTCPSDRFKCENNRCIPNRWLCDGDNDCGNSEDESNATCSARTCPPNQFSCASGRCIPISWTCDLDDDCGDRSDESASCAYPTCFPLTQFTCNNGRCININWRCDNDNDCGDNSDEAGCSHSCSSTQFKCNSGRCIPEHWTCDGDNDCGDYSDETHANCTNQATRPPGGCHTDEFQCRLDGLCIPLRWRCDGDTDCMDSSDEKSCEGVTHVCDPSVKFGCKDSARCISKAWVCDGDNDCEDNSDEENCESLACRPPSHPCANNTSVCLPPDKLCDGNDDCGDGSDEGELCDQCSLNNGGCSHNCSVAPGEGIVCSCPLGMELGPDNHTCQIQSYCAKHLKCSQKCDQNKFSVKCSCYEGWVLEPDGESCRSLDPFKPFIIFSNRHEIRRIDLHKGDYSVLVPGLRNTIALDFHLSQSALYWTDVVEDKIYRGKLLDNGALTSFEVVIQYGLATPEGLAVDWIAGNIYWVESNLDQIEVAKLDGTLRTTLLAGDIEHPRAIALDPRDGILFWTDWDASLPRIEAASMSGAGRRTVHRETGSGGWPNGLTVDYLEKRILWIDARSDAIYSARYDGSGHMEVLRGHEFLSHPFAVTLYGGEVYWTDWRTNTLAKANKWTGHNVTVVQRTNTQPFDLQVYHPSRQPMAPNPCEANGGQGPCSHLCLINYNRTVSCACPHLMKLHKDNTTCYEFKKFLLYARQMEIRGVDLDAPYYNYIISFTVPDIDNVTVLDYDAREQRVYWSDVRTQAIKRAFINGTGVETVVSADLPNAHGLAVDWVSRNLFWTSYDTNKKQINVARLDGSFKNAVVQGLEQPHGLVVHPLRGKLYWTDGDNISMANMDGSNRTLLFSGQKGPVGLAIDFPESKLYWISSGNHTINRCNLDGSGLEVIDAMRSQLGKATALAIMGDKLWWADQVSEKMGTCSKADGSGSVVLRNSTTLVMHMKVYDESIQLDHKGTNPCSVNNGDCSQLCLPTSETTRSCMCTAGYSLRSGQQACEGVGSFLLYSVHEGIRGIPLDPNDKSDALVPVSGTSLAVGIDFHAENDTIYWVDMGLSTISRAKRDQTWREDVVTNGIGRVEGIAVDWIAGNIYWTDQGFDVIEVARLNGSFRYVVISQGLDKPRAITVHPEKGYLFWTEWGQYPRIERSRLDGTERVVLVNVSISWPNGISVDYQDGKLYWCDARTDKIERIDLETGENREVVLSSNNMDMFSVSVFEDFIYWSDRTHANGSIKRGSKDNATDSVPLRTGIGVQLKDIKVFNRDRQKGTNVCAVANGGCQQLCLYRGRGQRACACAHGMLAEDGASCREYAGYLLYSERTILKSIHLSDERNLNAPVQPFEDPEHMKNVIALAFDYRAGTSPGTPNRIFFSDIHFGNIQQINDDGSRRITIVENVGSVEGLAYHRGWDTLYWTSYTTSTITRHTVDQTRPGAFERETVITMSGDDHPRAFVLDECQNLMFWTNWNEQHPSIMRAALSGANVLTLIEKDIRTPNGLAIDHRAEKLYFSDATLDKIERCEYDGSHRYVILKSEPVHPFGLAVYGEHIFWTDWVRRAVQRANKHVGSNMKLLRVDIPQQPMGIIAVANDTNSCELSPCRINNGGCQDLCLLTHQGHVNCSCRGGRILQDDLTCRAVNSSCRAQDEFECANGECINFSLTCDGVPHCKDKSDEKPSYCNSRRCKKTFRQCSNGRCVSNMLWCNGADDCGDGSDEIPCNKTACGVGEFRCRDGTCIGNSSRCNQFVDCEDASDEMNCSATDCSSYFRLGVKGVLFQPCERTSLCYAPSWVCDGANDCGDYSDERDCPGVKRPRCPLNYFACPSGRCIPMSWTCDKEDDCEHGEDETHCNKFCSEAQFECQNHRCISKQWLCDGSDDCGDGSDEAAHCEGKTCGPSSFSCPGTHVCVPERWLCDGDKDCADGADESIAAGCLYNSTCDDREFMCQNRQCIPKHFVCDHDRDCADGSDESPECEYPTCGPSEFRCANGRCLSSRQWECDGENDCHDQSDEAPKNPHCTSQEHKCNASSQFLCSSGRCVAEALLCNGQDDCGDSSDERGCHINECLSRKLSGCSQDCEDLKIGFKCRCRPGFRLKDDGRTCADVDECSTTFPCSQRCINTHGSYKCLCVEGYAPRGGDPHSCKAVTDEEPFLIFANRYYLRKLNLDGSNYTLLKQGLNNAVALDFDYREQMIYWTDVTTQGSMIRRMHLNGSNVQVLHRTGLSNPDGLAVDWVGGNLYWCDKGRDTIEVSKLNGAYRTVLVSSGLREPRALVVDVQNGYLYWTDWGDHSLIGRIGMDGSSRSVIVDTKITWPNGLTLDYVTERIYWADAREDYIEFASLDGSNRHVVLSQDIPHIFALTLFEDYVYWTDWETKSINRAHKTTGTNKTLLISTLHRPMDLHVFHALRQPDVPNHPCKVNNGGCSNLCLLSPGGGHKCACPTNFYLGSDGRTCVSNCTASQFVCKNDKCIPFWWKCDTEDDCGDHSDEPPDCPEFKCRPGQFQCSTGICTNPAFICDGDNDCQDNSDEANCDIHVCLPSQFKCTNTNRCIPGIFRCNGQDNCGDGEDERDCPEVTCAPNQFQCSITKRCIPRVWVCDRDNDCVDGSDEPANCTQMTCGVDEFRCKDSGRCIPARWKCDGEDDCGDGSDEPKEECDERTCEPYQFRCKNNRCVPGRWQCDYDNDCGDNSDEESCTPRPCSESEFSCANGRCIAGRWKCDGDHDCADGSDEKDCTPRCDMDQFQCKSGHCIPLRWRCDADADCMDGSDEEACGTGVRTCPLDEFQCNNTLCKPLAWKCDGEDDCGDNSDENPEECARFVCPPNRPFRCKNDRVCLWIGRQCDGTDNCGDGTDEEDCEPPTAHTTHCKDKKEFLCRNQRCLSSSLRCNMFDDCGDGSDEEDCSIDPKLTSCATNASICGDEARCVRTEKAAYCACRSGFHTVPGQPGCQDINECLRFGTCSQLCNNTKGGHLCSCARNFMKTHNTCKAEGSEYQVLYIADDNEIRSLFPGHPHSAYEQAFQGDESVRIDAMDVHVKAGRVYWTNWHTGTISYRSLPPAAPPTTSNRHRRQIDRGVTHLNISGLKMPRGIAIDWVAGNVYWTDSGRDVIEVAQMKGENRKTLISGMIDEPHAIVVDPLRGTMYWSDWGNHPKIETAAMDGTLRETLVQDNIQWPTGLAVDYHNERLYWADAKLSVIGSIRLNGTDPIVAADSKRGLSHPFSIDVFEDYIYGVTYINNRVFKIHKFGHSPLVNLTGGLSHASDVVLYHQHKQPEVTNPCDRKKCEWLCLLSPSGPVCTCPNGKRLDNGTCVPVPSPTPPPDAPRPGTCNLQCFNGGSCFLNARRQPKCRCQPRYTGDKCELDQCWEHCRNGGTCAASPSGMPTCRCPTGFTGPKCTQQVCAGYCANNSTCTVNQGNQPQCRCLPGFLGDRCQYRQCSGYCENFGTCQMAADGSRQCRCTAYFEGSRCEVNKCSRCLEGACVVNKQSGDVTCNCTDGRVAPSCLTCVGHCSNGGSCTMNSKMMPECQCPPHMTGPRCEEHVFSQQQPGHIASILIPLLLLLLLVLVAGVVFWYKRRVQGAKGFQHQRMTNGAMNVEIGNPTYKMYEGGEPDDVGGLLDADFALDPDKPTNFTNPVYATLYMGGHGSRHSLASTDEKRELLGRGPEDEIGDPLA

Megalin = Megalin (Homo sapiens, UniProt P98164); conditions: Tables 1-3; cited from earlier work
BBCEC monolayers = conditions: −saponin, cited from earlier work

| Molecule | Expression of the Cubilin receptor (Cubilin) | Specific uptake of p97 in astrocytoma cells over astrocytes [1] | Co-localization during endocytosis/transcytosis (BBCE) | Inhibition of [125I]-p97 binding to BBCECs [2] | Binding to LRP (LRP) | Binding to Megalin (Megalin) | Kd (BBCEC monolayers; Site 1, published value) [nM] | Kd (BBCEC monolayers; Site 2, published value) [nM] |
| --- | --- | --- | --- | --- | --- | --- | --- | --- |
| B1 | induces the expression | greatly increased | co-localize with clathrin | competitively inhibited |  |  |  |  |
| B2 |  |  |  | competitively inhibited | Yes | Yes | 35 | 1900 |
